Data taken from paper PMC5294778.

Target: FBXW7 (UniProt Q8VBV4)
Assay: anti-FLAG co-IP, MCL1-HA blot
Settings: reference: WT MCL1-HA; sites S140

MCL1 (from UniProt P97287) MCL1-HA S140A
binding against the reference: weaker
